Source: article PMC3288397 (2012)

Legend:
[1] = biological target: Rv0535 (M. tuberculosis methylthioadenosine phosphorylase, MTAP) (Mycobacterium tuberculosis, UniProt O06401); test: HPLC cleavage assay at […]; type: biochemical
[2] = tested on: CSC[C@H]1O[C@@H](n2cnc3c(N)ncnc32)[C@H](O)[C@@H]1O; test: purified protein; details: phosphate
[3] = tested on: Nc1ncnc2c1ncn2[C@@H]1O[C@H](CO)[C@@H](O)[C@H]1O; test: purified protein; details: phosphate

Rv0535 (M. tuberculosis methylthioadenosine phosphorylase, MTAP), sequence (O06401 whole entry): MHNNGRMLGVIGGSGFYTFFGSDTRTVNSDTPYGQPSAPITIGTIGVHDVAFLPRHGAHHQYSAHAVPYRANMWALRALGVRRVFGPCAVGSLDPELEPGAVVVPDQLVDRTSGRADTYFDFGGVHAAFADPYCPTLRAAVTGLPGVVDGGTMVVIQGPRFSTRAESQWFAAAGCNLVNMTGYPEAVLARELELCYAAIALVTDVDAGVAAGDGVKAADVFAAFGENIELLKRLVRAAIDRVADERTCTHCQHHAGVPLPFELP

Row | Molecule | Enzyme Activity (nmoles mg^-1 hr^-1) ^a [1] [nmol/mg/h] | kcat [2] [s⁻¹] | Km [3] [µM]
1 | Nc1ncnc2c1ncn2[C@@H]1O[C@H](CSCC[C@H](N)C(=O)O)[C@@H](O)[C@H]1O [S-Adenosyl-L-homocysteine] | 800 ± 100 | – | –
2 | Rv0535 (M. tuberculosis methylthioadenosine phosphorylase, MTAP) (Mycobacterium tuberculosis H37Rv) | – | 0.4 ± 0.2 | 1700 ± 200
